Measured values taken from paper PMC3274541 (2012).

Target: T1, GST-AIPL1 (Homo sapiens (Human), UniProt Q9NZN9)
T1 chain: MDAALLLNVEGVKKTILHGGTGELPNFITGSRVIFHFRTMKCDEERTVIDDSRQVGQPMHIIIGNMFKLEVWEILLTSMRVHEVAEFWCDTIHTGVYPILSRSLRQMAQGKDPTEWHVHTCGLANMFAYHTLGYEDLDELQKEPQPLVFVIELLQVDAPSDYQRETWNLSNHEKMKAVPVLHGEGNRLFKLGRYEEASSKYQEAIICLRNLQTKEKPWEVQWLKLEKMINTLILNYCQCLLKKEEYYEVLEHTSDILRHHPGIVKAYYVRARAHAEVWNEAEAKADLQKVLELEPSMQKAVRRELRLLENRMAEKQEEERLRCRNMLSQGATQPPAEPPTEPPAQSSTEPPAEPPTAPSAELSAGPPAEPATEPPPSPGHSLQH
Assay: GST pull-down

binding result: binds
B1: His6-FAT10, recombinant purified (protein)
chain: MAPNASCLCVHVRSEEWDLMTFDANPYDSVKKIKEHVRSKTKVPVQDQVLLLGSKILKPRRSLSSYGIDKEKTIHLTLKVVKPSDEELPLFLVESGDEAKRHLLQVRRSSSVAQVKAMIETKTGIIPETQIVTCNGKRLEDGKMMADYGIRKGNLLFLACYCIGG
